Results on one molecule are retold here after US9333240B2, “Compounds for improving nutritional status, cognition and survival” (YISSUM RESEARCH DEVELOPMENT COMPANY OF THE HEBREW …, priority 2005, dated 2016).

Entries after “also recorded” stand apart in the source; their conditions may differ.

The test system of assay [1] is mice. In words: Neurological score in TAA model of hepatic encephalopathy. The assay is classed as in vivo. The settings on record: TAA treated mice, Leptin daily for 5 days. As to the method:
Mice were treated with TAA, then 1 mk/kg Leptin was administered daily for 5 days and neurological score was evaluated

Assay [2] concerns mice. As to the kind of experiment: Eight-arm maze, mice ad libitum or diet restricted. The assay is classed as in vivo. The settings on record: 1 mg/kg leptin daily for 5 days. As to the method: Control mice received food ad-libitum. Diet-restricted mice received a diet of 57 kCal/week/mouse (2.16 g/day/mouse) as 60% of the requirement, or 38 kCal/week/mouse (1.44 g/day/mouse) for 40%/DR. DR was carried out for 10 days. Behavioral test was performed using the eight-arm spatial maze during the second week of experiment. […] Mice were sacrificed by decapitation after the behavioral tests and the hippocampi were frozen at −70° C. The animals were placed in an eight-arm maze, which is a scaled-down version of that developed for rats (Randt et al, (1971) Science 172, 489-499; Ziv et al (1994) Neuroscience Lett, 170, 136-140). […] The mice were tested until they made entries into all eight arms or until they completed 24 entries, whichever came first. […] Maze performance was calculated each day for five consecutive days. Results were presented as area under the curve (AUC) utilizing the formula: (day 2+day 3+day 4+day 5)−4*(day 1).

The test system of another assay is Bcl-2, Bax, PARP. As to the kind of experiment: Hippocampal apoptosis proteins by RT-PCR and immunoblotting. The assay is classed as in vivo, mice. Conditions: leptin 1 mg/kg, DR to 40%, immunoblotting. As to the method: Total hippocampal RNA was extracted using […] reagent according to the manufacturer's instructions and reverse transcribed. Primers specific for OBRlong were […] NO: 1) and […] NO: 6), for […] NO: 2), and […] NO: 7), for BAX […] NO: 3) and […] NO: 8) for Bcl-2 […] NO: 4) and […] NO: 9) and for actin […] NO: 5) and […] NO: 10). […] Total hippocampal Protein was extracted using […] reagent. Aliquots of the clarified lysates containing […] were denatured in Laemmli sample buffer (6% SDS 30%, glycerol, 0.02% bromophenol blue, 200 mM Tris-HCl (pH 6.8), and 250 mM-mercaptoethanol, at 95° C. for 5 min. The samples were resolved by SDS-PAGE (10% acrylamide), and blotted onto nitrocellulose membrane. Non-specific binding in a Western blot analysis was prevented by immersing the membranes in blocking buffer (5% nonfat dry milk in Tris-buffer saline-Tween 20 (TBS-T)), for 2 h at room temperature. The membranes were then exposed to the indicated antibodies diluted 1:1000 for 1 h at room temperature. AMPK, phospho-AMPK and PARP were obtained from Cell Signaling. Bax, bcl-2 and actin were from Santa Cruz Biotechnology Inc. (Santa Cruz, Calif.). The blots were rinsed in TBS-T and then incubated with horseradish peroxidase-conjugated goat anti-mouse antibodies 1:10,000 for 1 h at room temperature. Antibody-antigen complexes were visualized by detecting enhanced chemiluminescence with X-ray film.

Assay [3] has as its system mice. As to the kind of experiment: Mortality in TAA model of hepatic encephalopathy. The assay is classed as in vivo. The settings on record: mice ad libitum or DR to 40%, with or without leptin. As to the method:
Mice were maintained on Ad Librium or DR to 40% conditions. TAA was administered with or without leptin. Treated mortalilty rate was recorded everyday.

In the next assay the test system is AMPK. In words: Hippocampal AMPK phosphorylation by immunoblotting. The assay is classed as in vivo. The settings on record: 40% diet restricted mice, 1 mg/kg leptin for 72 h. As to the method: Total hippocampal Protein was extracted using TriFast reagent. Aliquots of the clarified lysates containing […] were denatured in Laemmli sample buffer (6% SDS 30%, glycerol, 0.02% bromophenol blue, 200 mM Tris-HCl (pH 6.8), and 250 mM-mercaptoethanol, at 95° C. for 5 min. The samples were resolved by SDS-PAGE (10% acrylamide), and blotted onto nitrocellulose membrane. Non-specific binding in a Western blot analysis was prevented by immersing the membranes in blocking buffer (5% nonfat dry milk in Tris-buffer saline-Tween 20 (TBS-T)), for 2 h at room temperature. The membranes were then exposed to the indicated antibodies diluted 1:1000 for 1 h at room temperature. AMPK, phospho-AMPK and PARP were obtained from Cell Signaling. Bax, bcl-2 and actin were from Santa Cruz Biotechnology Inc. (Santa Cruz, Calif.). The blots were rinsed in TBS-T and then incubated with horseradish peroxidase-conjugated goat anti-mouse antibodies 1:10,000 for 1 h at room temperature. Antibody-antigen complexes were visualized by detecting enhanced chemiluminescence with X-ray film.
Leptin is a key hormone in the regulation of energy balance and is known to modulate AMPK activity in other systems^15,16. The manner by which leptin may interact with AMPK in modulating brain function was further investigated. Leptin was analyzed functionality under different degrees of diet restriction. […]
In general terms: In western blotting, separated proteins are transferred to a membrane and probed.

Assay [4] deals with mice. In words: Eight-arm maze in LPS administered mice. The assay is classed as in vivo. Conditions: 1 mg/kg leptin daily. As to the method: The animals were placed in an eight-arm maze, which is a scaled-down version of that developed for rats (Randt et al, (1971) Science 172, 489-499; Ziv et al (1994) Neuroscience Lett, 170, 136-140). We used water deprivation achieved by limiting water consumption overnight and a reward of 50 μl of water presented at the end of each arm. The mice were tested until they made entries into all eight arms or until they completed 24 entries, whichever came first. […] Maze performance was calculated each day for five consecutive days. Results were presented as area under the curve (AUC) utilizing the formula: (day 2+day 3+day 4+day 5)−4*(day 1).
LPS administered mice were daily treated with 1 mg/kg leptin and then subjected to the eight arm maze.

The next assay relates to Cultured cardiomyocytes. As to the kind of experiment: Cardiomyocyte viability after glucose deprivation (WST). The assay is classed as cell-based. Conditions: glucose deprivation for 1, 3, 6 h. As to the method: Cultured cardiomyocytes were exposed to glucose deprivation for 1, 3, 6 h and were treated with Leptin as described above. Cell viability was analyzed by WST.

B1: leptin: Murine leptin provided by A. Gertler; adipokine hormone, full leptin is a 146 amino acid sequence (protein, UniProt P41160 22-167, looked up)
Leptin: VPIQKVQDDTKTLIKTIVTRINDISHTQSVSAKQRVTGLDFIPGLHPILSLSKMDQTLAVYQQVLTSLPSQNVLQIANDLENLRDLLHLLAFSKSCSLPQTSGLQKPESLDGVLEASLYSTEVVALSRLQGSLQDILQQLDVSPEC
B1: in the assay with mice [1], the neurological score entry is reported as “reversed impaired neurological score”. In addition, the eight-arm maze performance result in the assay with mice [2] (DR to 40%) was “reversed the impaired eight-arm maze performance”. In the assay on mice [2] (ad libitum control group), the eight-arm maze performance entry was “not affected”. Besides, in the assay on Bcl-2, Bax, PARP, the Bax levels result is on record as “reducing”, the PARP cleavage entry is “reduction in the cleaved subunit” and the bcl-2 level result is given as “up-regulation”. Further, the mortality result in the assay on mice [3] was “decreases mortality”. Moreover, the mortality entry in the assay on mice [3] (listed as Leptin) was “decreased mortality”. The “hippocampal AMPK phosphorylation” value in the assay on AMPK was “significantly reduced”. Also, the “cognitive function in the eight arm maze” value in the assay on mice [4] is “reverse cognitive function in diseased animals to the level of health controls; also recorded: improved impaired cognitive function”. In addition, the “cell viability (WST)” value with Cultured cardiomyocytes is on record as “increased significantly the viability; also recorded: induces survival”.
